Reference: US20250312499A1, “KISSPEPTIN RECEPTOR (KISS1R) TARGETED THERAPEUTICS AND USES THEREOF” (priority 2024, published 2025)
Numbered stars: 1 amine (or outer) side, 2 acyl side, 3 side chain; on linkers, the order of the positions; unused ones are H or OH. Square brackets hold non-standard residues; d marks the D form. Ends that are not written are not given here. * marks the point of attachment. X2 = 4‑amino‑1‑((3-fluoro-4-methylbenzyl)glycyl)piperidine‑4‑carboxylic acid, Cc1ccc(CN(CC(=O)N2CCC(N[*:1])(C(=O)[*:2])CC2)[*:3])cc1F; DOTA = O=C(O)CN1CCN(CC(=O)O)CCN(CC(=O)*)CCN(CC(=O)O)CC1; Api(1-amidino) = N=C(N)N1CCC(N)(C(=O)O)CC1; d(γGlu) = O=C(O)[C@@H](CCC(=O)[*:2])N[*:1]; Phe(3-F) = N[C@@H](Cc1cccc(F)c1)C(=O)O; εLys = N[C@@H](CCCCN[*:1])C(=O)[*:2]; Adipoyl = O=C(CCCCC(=O)[*:2])[*:1]; 4Pal = N[C@@H](Cc1ccncc1)C(=O)O; d4Pal = N[C@H](Cc1ccncc1)C(=O)O; 4Amb = NCc1ccc(C(=O)O)cc1; Octanoyl = CCCCCCCC(=O)*; APM = not defined here; Ahx = NCCCCCC(=O)O; azaGly = NNC(=O)O

B1: Compound 151 (peptide)
peptide: {DOTA}-GY[dW]NTF[azaGly]L[X2]W-NH2
SMILES: Cc1ccc(CNCC(=O)N2CCC(NC(=O)[C@H](CC(C)C)NC(=O)NNC(=O)[C@H](Cc3ccccc3)NC(=O)[C@@H](NC(=O)[C@H](CC(N)=O)NC(=O)[C@@H](Cc3c[nH]c4ccccc34)NC(=O)[C@H](Cc3ccc(O)cc3)NC(=O)CNC(=O)CN3CCN(CC(=O)O)CCN(CC(=O)O)CCN(CC(=O)O)CC3)[C@@H](C)O)(C(=O)N[C@@H](Cc3c[nH]c4ccccc34)C(N)=O)CC2)cc1F
B2: Compound 158 (peptide)
peptide: {DOTA-APM}-NTF[azaGly]L[X2]W-NH2
modifications: reading uncertain
B3: Compound 218 (peptide)
peptide: {DOTA-APM}-ENT[beta‑(2-thienyl)alanine][azaGly]L[X2]W-NH2
modifications: reading uncertain
B4: Compound 192 (peptide)
peptide: {DOTA-trans‑4‑(aminomethyl)cyclohexane‑1‑carboxylic acid}-F[azaGly]L[X2]W-NH2
B5: Compound 167 (peptide)
peptide: NTF[azaGly]L[X2]W-NH2
modifications: not fully specified (N-terminus)
B6: Compound 159 (peptide)
peptide: {DOTA-APM}-ENT[Phe(3-F)][azaGly]L[X2]W-NH2
modifications: reading uncertain
B7: Compound 197 (peptide)
peptide: {3‑(2-(2-methoxyethoxy)ethoxy)propanoic acid}-[dY]K(DOTA)NTF[azaGly]L[Api(1-amidino)]W-NH2
B8: Compound 196 (peptide)
peptide: {3‑(2-(2-(3-(4-iodophenyl)propanamido)ethoxy)ethoxy)propanoic acid}-[dY]K(DOTA)NTF[azaGly]L[Api(1-amidino)]W-NH2
B9: Compound 169 (peptide)
peptide: {DOTA-Ahx}-NT[Phe(3-F)][azaGly]L[X2][4Pal]-NH2
SMILES: Cc1ccc(CNCC(=O)N2CCC(NC(=O)[C@H](CC(C)C)NC(=O)NNC(=O)[C@H](Cc3cccc(F)c3)NC(=O)[C@@H](NC(=O)[C@H](CC(N)=O)NC(=O)CCCCCNC(=O)CN3CCN(CC(=O)O)CCN(CC(=O)O)CCN(CC(=O)O)CC3)[C@@H](C)O)(C(=O)N[C@@H](Cc3ccncc3)C(N)=O)CC2)cc1F
B10: Compound 233 (peptide)
peptide: {DOTA-APM}-TF[azaGly]L[X2]W-NH2
modifications: reading uncertain
B11: Compound 181 (peptide)
peptide: Octanoyl-[dY]K(DOTA)NTF[azaGly]L[X2]W-NH2
SMILES: CCCCCCCC(=O)N[C@H](Cc1ccc(O)cc1)C(=O)N[C@@H](CCCCNC(=O)CN1CCN(CC(=O)O)CCN(CC(=O)O)CCN(CC(=O)O)CC1)C(=O)N[C@@H](CC(N)=O)C(=O)N[C@H](C(=O)N[C@@H](Cc1ccccc1)C(=O)NNC(=O)N[C@@H](CC(C)C)C(=O)NC1(C(=O)N[C@@H](Cc2c[nH]c3ccccc23)C(N)=O)CCN(C(=O)CNCc2ccc(C)c(F)c2)CC1)[C@@H](C)O
B12: Compound 6 (peptide)
peptide: {DOTA-Ahx}-[dY][dW]NTF[azaGly]L[Api(1-amidino)]W-NH2
SMILES: CC(C)C[C@H](NC(=O)NNC(=O)[C@H](Cc1ccccc1)NC(=O)[C@@H](NC(=O)[C@H](CC(N)=O)NC(=O)[C@@H](Cc1c[nH]c2ccccc12)NC(=O)[C@@H](Cc1ccc(O)cc1)NC(=O)CCCCCNC(=O)CN1CCN(CC(=O)O)CCN(CC(=O)O)CCN(CC(=O)O)CC1)[C@@H](C)O)C(=O)NC1(C(=O)N[C@@H](Cc2c[nH]c3ccccc23)C(N)=O)CCN(C(=N)N)CC1
B13: Compound 232 (peptide)
peptide: {DOTA-4Amb}-[D‑3‑aminopentanedioic acid]NT[Phe(3-F)][azaGly]L[X2][4Pal]-NH2
B14: Compound 164 (peptide)
peptide: {DOTA-2‑(4-aminopiperidin-1-yl)acetyl}-KNT[Phe(3-F)][azaGly]L[X2]W-NH2
B15: Compound 182 (peptide)
peptide: {Me‑PEG25‑C(:O)}-[dY]K(DOTA)NTF[azaGly]L[Api(1-amidino)]W-NH2
B16: Compound 205 (peptide)
peptide: {DOTA-4Amb}-NTF[azaGly]L[X2]Y-NH2
SMILES: Cc1ccc(CNCC(=O)N2CCC(NC(=O)[C@H](CC(C)C)NC(=O)NNC(=O)[C@H](Cc3ccccc3)NC(=O)[C@@H](NC(=O)[C@H](CC(N)=O)NC(=O)c3ccc(CNC(=O)CN4CCN(CC(=O)O)CCN(CC(=O)O)CCN(CC(=O)O)CC4)cc3)[C@@H](C)O)(C(=O)N[C@@H](Cc3ccc(O)cc3)C(N)=O)CC2)cc1F
B17: Compound 213 (peptide)
peptide: {DOTA}-GY[4Amb]NTF[azaGly]L[X2]W-NH2
SMILES: Cc1ccc(CNCC(=O)N2CCC(NC(=O)[C@H](CC(C)C)NC(=O)NNC(=O)[C@H](Cc3ccccc3)NC(=O)[C@@H](NC(=O)[C@H](CC(N)=O)NC(=O)c3ccc(CNC(=O)[C@H](Cc4ccc(O)cc4)NC(=O)CNC(=O)CN4CCN(CC(=O)O)CCN(CC(=O)O)CCN(CC(=O)O)CC4)cc3)[C@@H](C)O)(C(=O)N[C@@H](Cc3c[nH]c4ccccc34)C(N)=O)CC2)cc1F
B18: Compound 170 (peptide)
peptide: {2,2',2''‑(10-(2-((((1s,4s)-4-carboxycyclohexyl)methyl)amino)-2-oxoethyl)-1,4,7,10-tetraazacyclododecane-1,4,7-triyl)triacetic acid}-ENT[Phe(3-F)][azaGly]L[X2][4Pal]-NH2
B19: Compound 168 (peptide)
peptide: {DOTA-4Amb-Met-Trp-εLys-Adipoyl}-NTF[azaGly]L[X2]W-NH2
B20: Compound 161 (peptide)
peptide: {DOTA-(1r,4r)‑4‑(aminomethyl)cyclohexane‑1‑carbonyl}-[dE]NT[Phe(3-F)][azaGly]L[X2]W-NH2
B21: Compound 193 (peptide)
peptide: {DOTA}-G[dY][d4Pal]NTF[azaGly]L[X2]Y-NH2
SMILES: Cc1ccc(CNCC(=O)N2CCC(NC(=O)[C@H](CC(C)C)NC(=O)NNC(=O)[C@H](Cc3ccccc3)NC(=O)[C@@H](NC(=O)[C@H](CC(N)=O)NC(=O)[C@@H](Cc3ccncc3)NC(=O)[C@@H](Cc3ccc(O)cc3)NC(=O)CNC(=O)CN3CCN(CC(=O)O)CCN(CC(=O)O)CCN(CC(=O)O)CC3)[C@@H](C)O)(C(=O)N[C@@H](Cc3ccc(O)cc3)C(N)=O)CC2)cc1F
B22: Compound 195 (peptide)
peptide: {3‑(2-(2-(3-(p-tolyl)propanamido)ethoxy)ethoxy)propanoic acid}-[dY]K(DOTA)NTF[azaGly]L[Api(1-amidino)]W-NH2
B23: Compound 160 (peptide)
peptide: {DOTA-(1r,4r)‑4‑(aminomethyl)cyclohexane‑1‑carbonyl}-ENT[Phe(3-F)][azaGly]L[X2]W-NH2
B24: Compound 234 (peptide)
peptide: {DOTA-APM}-ETF[azaGly]L[X2]W-NH2
modifications: reading uncertain
B25: Compound 149 (peptide)
peptide: {DOTA-4Amb}-GY[Ahx][dY][dW]NTF[azaGly]L[X2]W-NH2
SMILES: Cc1ccc(CNCC(=O)N2CCC(NC(=O)[C@H](CC(C)C)NC(=O)NNC(=O)[C@H](Cc3ccccc3)NC(=O)[C@@H](NC(=O)[C@H](CC(N)=O)NC(=O)[C@@H](Cc3c[nH]c4ccccc34)NC(=O)[C@@H](Cc3ccc(O)cc3)NC(=O)CCCCCNC(=O)[C@H](Cc3ccc(O)cc3)NC(=O)CNC(=O)c3ccc(CNC(=O)CN4CCN(CC(=O)O)CCN(CC(=O)O)CCN(CC(=O)O)CC4)cc3)[C@@H](C)O)(C(=O)N[C@@H](Cc3c[nH]c4ccccc34)C(N)=O)CC2)cc1F
B26: Compound 156 (peptide)
peptide: {DOTA}-[d(γGlu)]F[azaGly]L[X2]W-NH2
SMILES: Cc1ccc(CNCC(=O)N2CCC(NC(=O)[C@H](CC(C)C)NC(=O)NNC(=O)[C@H](Cc3ccccc3)NC(=O)CC[C@@H](NC(=O)CN3CCN(CC(=O)O)CCN(CC(=O)O)CCN(CC(=O)O)CC3)C(=O)O)(C(=O)N[C@@H](Cc3c[nH]c4ccccc34)C(N)=O)CC2)cc1F
B27: Compound 203 (peptide)
peptide: F[azaGly]L[X2]W-NH2
modifications: not fully specified (N-terminus)
B28: Compound 206 (peptide)
peptide: {DOTA-4Amb}-[dE]NTF[azaGly]L[X2]Y-NH2
SMILES: Cc1ccc(CNCC(=O)N2CCC(NC(=O)[C@H](CC(C)C)NC(=O)NNC(=O)[C@H](Cc3ccccc3)NC(=O)[C@@H](NC(=O)[C@H](CC(N)=O)NC(=O)[C@@H](CCC(=O)O)NC(=O)c3ccc(CNC(=O)CN4CCN(CC(=O)O)CCN(CC(=O)O)CCN(CC(=O)O)CC4)cc3)[C@@H](C)O)(C(=O)N[C@@H](Cc3ccc(O)cc3)C(N)=O)CC2)cc1F

Target: human kisspeptin receptor (KISS1R) (human), Q969F8
Sequence (Q969F8 whole entry): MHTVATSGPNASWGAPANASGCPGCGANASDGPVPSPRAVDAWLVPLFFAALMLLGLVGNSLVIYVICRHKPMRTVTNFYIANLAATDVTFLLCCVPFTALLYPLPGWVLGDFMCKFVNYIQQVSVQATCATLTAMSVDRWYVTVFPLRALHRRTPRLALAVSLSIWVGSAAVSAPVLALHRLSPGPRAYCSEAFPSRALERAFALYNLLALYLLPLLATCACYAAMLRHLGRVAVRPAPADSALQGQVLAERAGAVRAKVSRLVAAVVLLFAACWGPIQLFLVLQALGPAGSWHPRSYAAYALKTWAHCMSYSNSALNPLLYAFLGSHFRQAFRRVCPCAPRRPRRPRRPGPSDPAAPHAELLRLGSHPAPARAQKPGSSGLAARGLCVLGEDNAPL
Assay: radioligand competition, hKISS1R membranes; legend: A is <10 nM

Ki, < 10 nM:
B1, B2, B3, B4, B5, B6, B7, B8, B9, B10, B11, B12, B13, B14, B15, B16, B17, B18, B19, B20, B21, B22, B23, B24, B25, B26, B27, B28
